Data published in article PMC4701059 (Molecular microbiology, 2015).

What was measured:
ComP(CD) (his6-ComP(CD)) = ComP(CD) (his6-ComP(CD)) (Bacillus subtilis, UniProt Q99027); assay: autophosphorylation with γ-32P-ATP, SDS-PAGE, phosphorimaging; assay type: biochemical; settings: 0.5 mM ATP; 20 mM MgCl2, pH 8-8.5, 24°C; labelled compound
ComA;Rap60(N27A) = target: T1, ComA;Rap60(N27A) (Bacillus subtilis (genomic DNA; strain …, UniProt P14204;Q45456 2-214;2-375, |N27A); assay: EMSA
T1 sequence 1: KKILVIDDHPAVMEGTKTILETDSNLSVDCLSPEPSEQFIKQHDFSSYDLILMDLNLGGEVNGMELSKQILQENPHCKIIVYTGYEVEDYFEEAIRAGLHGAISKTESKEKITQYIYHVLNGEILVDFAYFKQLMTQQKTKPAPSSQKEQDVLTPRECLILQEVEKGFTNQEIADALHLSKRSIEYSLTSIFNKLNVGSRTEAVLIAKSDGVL
T1 sequence 2: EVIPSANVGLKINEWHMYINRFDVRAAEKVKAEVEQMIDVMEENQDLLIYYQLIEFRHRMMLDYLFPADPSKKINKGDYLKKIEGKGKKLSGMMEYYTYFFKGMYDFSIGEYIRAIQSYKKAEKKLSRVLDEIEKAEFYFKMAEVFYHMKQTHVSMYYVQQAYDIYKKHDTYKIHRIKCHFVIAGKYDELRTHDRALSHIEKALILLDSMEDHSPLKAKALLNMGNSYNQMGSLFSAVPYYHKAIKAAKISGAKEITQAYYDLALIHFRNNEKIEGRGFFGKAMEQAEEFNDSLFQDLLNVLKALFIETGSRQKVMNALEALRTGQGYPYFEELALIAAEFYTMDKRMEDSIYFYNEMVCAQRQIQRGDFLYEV

ComA;Rap60(R26A) = target: T2, ComA;Rap60(R26A) (Bacillus subtilis (genomic DNA; strain …, UniProt P14204;Q45456 2-214;2-375, |R26A); assay: EMSA
T2 sequence 1: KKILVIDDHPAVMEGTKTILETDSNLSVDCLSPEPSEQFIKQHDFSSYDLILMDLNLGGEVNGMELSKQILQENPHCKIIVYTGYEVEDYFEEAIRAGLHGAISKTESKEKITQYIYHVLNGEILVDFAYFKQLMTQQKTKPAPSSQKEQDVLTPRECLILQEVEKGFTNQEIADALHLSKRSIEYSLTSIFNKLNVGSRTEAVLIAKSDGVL
T2 sequence 2: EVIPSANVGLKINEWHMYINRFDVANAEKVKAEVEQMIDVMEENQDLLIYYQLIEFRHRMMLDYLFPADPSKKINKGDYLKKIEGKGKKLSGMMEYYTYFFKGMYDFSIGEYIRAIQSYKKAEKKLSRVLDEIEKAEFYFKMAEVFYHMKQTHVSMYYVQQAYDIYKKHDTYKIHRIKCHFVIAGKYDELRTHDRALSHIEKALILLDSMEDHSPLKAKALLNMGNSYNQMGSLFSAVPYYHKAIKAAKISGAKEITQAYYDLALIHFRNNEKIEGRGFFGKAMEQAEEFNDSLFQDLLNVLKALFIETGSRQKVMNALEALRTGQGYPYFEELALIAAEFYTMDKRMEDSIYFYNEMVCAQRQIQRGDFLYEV

ComA;Rap60(R26P) = target: T3, ComA;Rap60(R26P) (Bacillus subtilis (genomic DNA; strain …, UniProt P14204;Q45456 2-214;2-375, |R26P); assay: EMSA
T3 sequence 1: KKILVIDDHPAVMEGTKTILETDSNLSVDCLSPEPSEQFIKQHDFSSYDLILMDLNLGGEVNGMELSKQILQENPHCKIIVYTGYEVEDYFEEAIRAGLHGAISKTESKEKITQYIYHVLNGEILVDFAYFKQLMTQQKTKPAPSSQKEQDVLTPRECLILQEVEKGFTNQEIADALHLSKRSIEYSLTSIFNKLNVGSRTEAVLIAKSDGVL
T3 sequence 2: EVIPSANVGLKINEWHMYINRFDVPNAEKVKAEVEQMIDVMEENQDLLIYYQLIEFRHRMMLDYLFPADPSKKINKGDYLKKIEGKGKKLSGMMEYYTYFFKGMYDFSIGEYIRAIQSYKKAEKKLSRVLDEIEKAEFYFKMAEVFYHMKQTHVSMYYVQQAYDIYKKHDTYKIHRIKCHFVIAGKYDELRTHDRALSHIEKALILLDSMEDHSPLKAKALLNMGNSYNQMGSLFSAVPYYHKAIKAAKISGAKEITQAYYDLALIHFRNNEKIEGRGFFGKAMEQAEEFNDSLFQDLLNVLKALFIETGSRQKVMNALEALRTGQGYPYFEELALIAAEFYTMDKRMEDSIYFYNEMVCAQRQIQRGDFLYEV

ComA;Rap60 = target: T4, ComA;Rap60 (Bacillus subtilis (genomic DNA; strain …, UniProt P14204;Q45456 2-214;2-375, |); assay: EMSA
T4 sequence 1: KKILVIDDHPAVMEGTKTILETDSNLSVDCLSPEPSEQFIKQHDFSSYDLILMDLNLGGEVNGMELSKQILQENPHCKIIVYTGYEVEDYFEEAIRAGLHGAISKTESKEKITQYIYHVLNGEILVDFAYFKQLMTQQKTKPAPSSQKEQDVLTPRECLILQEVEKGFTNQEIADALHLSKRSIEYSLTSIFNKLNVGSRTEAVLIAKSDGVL
T4 sequence 2: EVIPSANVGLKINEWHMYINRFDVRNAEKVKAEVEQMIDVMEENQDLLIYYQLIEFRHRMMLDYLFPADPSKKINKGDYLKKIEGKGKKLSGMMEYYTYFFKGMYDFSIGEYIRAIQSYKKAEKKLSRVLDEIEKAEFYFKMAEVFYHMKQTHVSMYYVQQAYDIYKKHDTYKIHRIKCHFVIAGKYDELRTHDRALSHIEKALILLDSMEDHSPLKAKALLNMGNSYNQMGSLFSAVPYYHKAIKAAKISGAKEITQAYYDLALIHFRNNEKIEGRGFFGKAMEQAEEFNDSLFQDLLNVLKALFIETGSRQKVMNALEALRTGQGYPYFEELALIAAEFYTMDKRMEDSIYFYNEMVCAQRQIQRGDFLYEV

ComA = target: T5, ComA (Bacillus subtilis (genomic DNA; strain …, UniProt P14204 2-214); assay: EMSA
T5 sequence: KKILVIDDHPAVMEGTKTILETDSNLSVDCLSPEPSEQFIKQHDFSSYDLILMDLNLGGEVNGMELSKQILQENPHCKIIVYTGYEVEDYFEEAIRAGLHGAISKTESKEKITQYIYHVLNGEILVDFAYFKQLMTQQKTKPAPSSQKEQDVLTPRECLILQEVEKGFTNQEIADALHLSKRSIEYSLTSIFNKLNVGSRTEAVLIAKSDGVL

Rap60 = target: T6, Rap60 (Bacillus subtilis plasmid pTA1060, UniProt Q45456 2-375); assay: EMSA
T6 sequence: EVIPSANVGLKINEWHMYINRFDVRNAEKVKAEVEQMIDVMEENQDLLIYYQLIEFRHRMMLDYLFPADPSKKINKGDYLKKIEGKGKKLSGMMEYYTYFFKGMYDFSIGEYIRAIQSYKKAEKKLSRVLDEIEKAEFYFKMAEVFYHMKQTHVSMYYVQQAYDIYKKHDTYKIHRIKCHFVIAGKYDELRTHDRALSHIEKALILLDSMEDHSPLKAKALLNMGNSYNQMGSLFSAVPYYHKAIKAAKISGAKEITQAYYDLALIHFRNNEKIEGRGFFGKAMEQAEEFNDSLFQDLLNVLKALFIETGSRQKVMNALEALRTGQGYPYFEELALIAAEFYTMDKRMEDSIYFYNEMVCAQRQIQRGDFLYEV

ComP(CD) (his6-ComP(CD)), sequence (Q99027 384-769): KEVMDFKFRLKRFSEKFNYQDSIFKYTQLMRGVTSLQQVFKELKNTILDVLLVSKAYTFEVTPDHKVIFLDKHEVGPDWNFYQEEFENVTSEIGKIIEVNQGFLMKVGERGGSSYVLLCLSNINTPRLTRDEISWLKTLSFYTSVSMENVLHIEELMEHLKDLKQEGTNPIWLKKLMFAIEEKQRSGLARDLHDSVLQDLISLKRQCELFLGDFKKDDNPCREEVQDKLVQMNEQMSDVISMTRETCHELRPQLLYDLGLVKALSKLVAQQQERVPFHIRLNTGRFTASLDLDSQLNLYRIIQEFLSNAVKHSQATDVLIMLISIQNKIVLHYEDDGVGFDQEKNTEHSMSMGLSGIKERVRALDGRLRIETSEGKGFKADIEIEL

`Nc1ncnc2c1ncn2[C@@H]1O[C@H](COP(=O)(O)OP(=O)(O)OP(=O)(O)O)[C@@H](O)[C@H]1O` [ATP] was tested, and the “autophosphorylation with γ-32P-ATP, SDS-PAGE, phosphorimaging” value (ComP(CD) (his6-ComP(CD))) was “ComP autophosphorylation, ComP~P dephosphorylation, phosphotransfer from ComP to ComA”.

B1: minimal consensus ComA binding site (dsDNA)
DNA 1: TCATTGCGGCATCCCGCAAGAAACTTTGCGGTC
DNA 2: GACCGCAAAGTTTCTTGCGGGATGCCGCAATGA
B1: binds (ComA;Rap60(N27A)); binds (ComA;Rap60(R26A)); binds (ComA;Rap60(R26P)). B1: binds (ComA;Rap60); binds (ComA); no binding (Rap60).
